The target of this assay is T1, recombinant YFV E protein (soluble E, sE; YFV Asibi strain) (Yellow fever virus, Asibi strain, UniProt Q6DV88 286-678).
T1 construct: also called YFV E antigen; YFV E monomer
The experiment in a line: BLI monovalent (IgG on tip).

Where a chain is given by its changes, count along the chain named.

T1 sequence (Q6DV88 286-678): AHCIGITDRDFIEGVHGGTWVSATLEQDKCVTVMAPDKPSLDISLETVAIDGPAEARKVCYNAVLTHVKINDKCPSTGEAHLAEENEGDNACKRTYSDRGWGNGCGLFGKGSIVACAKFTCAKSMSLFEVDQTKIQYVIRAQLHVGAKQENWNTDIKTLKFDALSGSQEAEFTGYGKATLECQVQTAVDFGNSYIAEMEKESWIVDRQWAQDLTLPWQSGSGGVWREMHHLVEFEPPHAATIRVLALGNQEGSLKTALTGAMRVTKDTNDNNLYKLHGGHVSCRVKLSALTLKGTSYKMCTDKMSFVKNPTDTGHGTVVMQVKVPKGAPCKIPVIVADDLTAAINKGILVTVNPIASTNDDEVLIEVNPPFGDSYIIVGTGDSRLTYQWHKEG

B1: ADI-42188 (antibody, V domains shown)
VH: EVQLLESGPGLVKPSGTLSLTCAVSGGSISSGNWWSWVRQPPGKGLEWIGEIYHSGSANYNPSLKSRVTISVDKSKNQFSLKLTSVTAADTAVYYCARVVWEYSNAWCVDFWGQGTTVTVSS
VL: QSVLTQPPSVSAAPGQKVTISCSGSSSNIGNNYVSWYQQLPGTAPKLLIYDNNKRPSGIPDRFSGSKSGTSATLGITGLQTGDEADYYCETWDSSLGVVVFGGGTKLTVL
notes: full-length IgG; also called Antibody Number 32
Usually Kd stands for the free concentration of one partner at which half of the binding sites on the other are occupied at equilibrium, for simple one-to-one binding. Take B1: the Kd is 37.1 nM.

B2: ADI-45097 (antibody, V domains shown)
VH: EVQLVESGGGVVQPGRSLRLSCAASGFTFNSHGMHWVRQAPGKGLEWVAVISYDGTKKYFADSVKGRFTISRDNSKNTLYLQMSSLRADDTAVYYCAKDSSTSWYQVVYHIDYWGQGTLVTVSS
VL: B1 VL with L4V, S35A, T43R, Y50H, N53K, K67A, G97N, V98A
notes: full-length IgG; also called Antibody Number 5
Turning to B2, the Kd worked out at 1.62 nM.

B3: ADI-42831 (antibody, V domains shown)
VH: EVQLVESGGGLVQPGGSLRLSCAASGFTFINYAMTWVRQAPGKGLEWVSAISGNGDGTYYADSVKGRFTLSRDNAKNTIYLHMSALRDEDTALYYCAKDQGVTTDWPSDYWGQGTLVTVSS
VL: DIRLTQSPSTLSASVGDRVTVTCRASQNINTYLAWYQQIPGKAPRLLIYRASTLESGVPSRFSGSGSGTEFTLTINSLQPDDYATYYCQHYETYSVRFGQGTKVEIK
notes: full-length IgG; also called Antibody Number 46
With B3, the Kd was 19.6 nM.

B4: ADI-42821 (antibody, V domains shown)
VH: EVQLLESGGGLVPPGGSLRLSCAASGFTFSNYAMSWVRQAPGKGLEWVSAISGSGDSTYYADSVKGRFTLSRDTSKKMVYLHMSNLRDDDTAVYYCARDQGFTTDWPCDYWGQGTLVTVSS
VL: B3 VL with R3V, T53S, N76S, Y83F, E92N, T93S, Y94F, R97K
notes: full-length IgG; also called Antibody Number 49
For the molecule B4, the Kd turned out to be 12.1 nM.

B5: ADI-49186 (antibody, V domains shown)
VH: QVQLVESGGGVVQPGRSLRLSCAASGFTFSNSGMHWVRQAPGQGLEWVALISYTGETKYYSDSLKARFTISRDNSKNTLYLQMSSLSNEDTAVYYCARDYYASGDGYFDYWGQGTLVTVSS
VL: DIVLTQSPDSLAVSLGERATINCKSSQSVLFGSNQKSCLAWYQQKPGQSPKLLIHWASTRESGVPDRFSGSGSGTDFTLTISSLQAEDVAVYYCQQYYSTPRTFGQGTKVEIK
notes: full-length IgG; also called Antibody Number 38
Turning to B5, the Kd worked out at 12.3 nM.

B6: ADI-42194 (antibody, V domains shown)
VH: EVQLQESGPGLVKPSETLSLTCTVSGGSVSSGSYYWSWIRQPPGKGLEWIGYIYDSGNTNYNPSLKSRVTISVDTSKRQFSLRLTSVTAADTAVYYCAKVEEDGYTNVVRDYWGQGTLVTVSS
VL: EIVMTQSPATLSLSPGERATLSCRASQSVSNYLAWYQQKPGQAPRLLISDASSRATGIPARFRGSGSGTDFTLTISSLEPEDFAVYYCLQRTNWPFTFGPGTKVEIK
notes: full-length IgG; also called Antibody Number 29
As to B6, the Kd came out at 5.44 nM.

B7: ADI-42847 (antibody, V domains shown)
VH: EVQLLESGPRLVKPSETLSLTCTVSGGSVRGGSHYWSWIRQPPGKGLEWIGYVYDSGSTNYNPSLKSRVSISVDMSKKQFSLKLRSVTAADTAVYHCVRVEEYVNNEEVRDYWGQGTMVTVSS
VL: B6 VL with E1D, S7T, N31S, S49Y, D50G, S53N, R63S
notes: full-length IgG; also called Antibody Number 48
Consider B7, for which the Kd amounted to 3.21 nM.

B8: ADI-49189 (antibody, V domains shown)
VH: EVQLVESGGGLVKPGGSLRLSCAASGFTFSDYYMSWIRQAPGKGLECIACISSSGSMIYYADSVKGRFTISRDNAKNSLYLQLNSLRVEDTAVYYCAREGTRGRMDWGQGTLVTVSS
VL: QSVLTQPASVSGSPGQSITISCTGTSSDIGGYNYVSWYQQHPGKVPKLVIYDVSNRPSGVSNRFSGSKSGNTASLTISGLQAEDEADYYCSSYTSGTTLGVFGTGTKLTVL
notes: full-length IgG; also called Antibody Number 30
Regarding B8, the Kd worked out at 12.7 nM.

B9: ADI-50531 (antibody, V domains shown)
VH: EVTLKESGPTLVKPTQTLTLTCTFSGFSLSTSGVGVGWIRQPPGKALEWLALIYWDDDKRYSPSLKSRLTITKDTSKNQVVLTMTNMDPVDTATYYCAHSPRRITMVRGVIITWGDGMDVWGQGTTVTVSS
VL: B8 VL with S2P, I29V, V45A, V49M, G96S, T97S, G100A, T104G
notes: full-length IgG; also called Antibody Number 42
Turning to B9, the Kd was more than 100 nM.

B10: ADI-46596 (antibody, V domains shown)
VH: QVQLQESGPGLVKPSGTLSLTCAVSGGSISSNNWWSWVRQPPGKGLEWIGDTYHSGSPSYNPSLKSRVTISVDKSKNEFSLKLSSVTAADTAVYFCARYCSGATCYGSNGMDVWGQGTTVTVSS
VL: QSVLTQPPSMSAAPGQKVTISCSGSSSNIGNNYVSWYRQLPGTAPKLLIYDNDKRPSGIPDRFSGSKSGTTATLGITGLQTGDEAVYYCGTWDFRLSALFGGGTKLTVL
notes: full-length IgG; also called Antibody Number 35
For the molecule B10, the Kd is 5.11 nM.

B11: ADI-46591 (antibody, V domains shown)
VH: QVQLQQWGPELVKPSGTLSLTCTVSGGSISSISWWSWVRQSPGKGLEWIGEINHSGSTVYNPSLKSRVTISVDKSKKQFSLKLRSVTAADTAVYYCVRYCSSTSCYGLNGMDVWGQGTTVTVSS
VL: B10 VL with M10V, N31S, Y33F, R38Q, D53N, T71S, G75A, V86D, F94T, L106V
notes: full-length IgG; also called Antibody Number 39
Turning to B11, the Kd is 9.6 nM.

B12: ADI-49138 (antibody, V domains shown)
VH: QVQLVESGGGVVQPGRSLRLSCAASGFTFSNSGMHWVRQAPGKGLEWVSVIWYDESNKYYADSVKGRFTISRDNSKNTVYLQMNTLRAEDTAVYYCARDAYASGDGGIDYWGQGALVTVSS
VL: QPVLTQSASVSGSPGQSITISCTGTSSDVGGYKYVSWYQQHPGKAPKLMIYEVSNRPSGVSIRFSGSKSGNTASLTISGLQAADEADYYCSSYRSSGTPYVFGTGTKVTVL
notes: full-length IgG; also called Antibody Number 44
Take B12: the Kd turned out to be 17.5 nM.

B13: ADI-49188 (antibody, V domains shown)
VH: EVQLLESGPGLVRPSGTLSLTCAVSGGSISTTDWWSWVRQPPGKGLEWIGEINQSGSTSYSPSFKSRVSISVDKSKRQFSLKLTSVTAADTAVYYCARDSWSGPTRNWFDPWGRGTLVTVSS
VL: QSVVTQPPSVSAAPGQKVTISCSGRSSNIGNSDVSWYQQFPGRAPKLLIYDNDERPSGIPDRFSGSKSGTSATLDITGLQTGDEADYYCGTWDSSLGGVIFGGGTKVTVL
notes: full-length IgG; also called Antibody Number 31
In the case of B13, the Kd came to 9.54 nM.

B14: ADI-42809 (antibody, V domains shown)
VH: QVQLVESGPGLVKPSGTLSLTCAVSGDSISSTNWWSWVRQPPGKGLEYIGEIFHSGSTNYNPFLKSRVTISVDKSKNHFSLKLSSVTAADTAVYYCARGPLKSYWYFDLWGRGTLVTVSS
VL: QSVLTQPPSVSAAPGQKVTISCSGSSSNIGNNYVSWYQQLPGTAPKLLIYDNNKRPSGIPDRFSGSKSGTSATLGITGLQTGDEADYYCGTWDTSLSAGRVFGGGTKLTVL
notes: full-length IgG; also called Antibody Number 34
Consider B14, for which the Kd was 3.78 nM.

B15: ADI-42830 (antibody, V domains shown)
VH: EVQLLESGPGLVRPSGTLSLTCAVSGASISSNHWWTWVRQPPGKGLEWIGEIYHSGSPTYNPSLKSRVTISVDKSKNQFSLKLNSVTAADTAVYYCASTLWGGPLSVASDYWGQGTLVTVSS
VL: B14 VL with N32Y, L40V, Q80H, D86E, T94S, L96P
notes: full-length IgG; also called Antibody Number 37
In the case of B15, the Kd was 3.48 nM.

B16: ADI-42818 (antibody, V domains shown)
VH: EVQLVESGPGLVKPSGTLSLTCAVSGGSITGSNWWSWVRQPPGKGLEWIGEIYHTGSTSYNPSLKSRVTISVDNSKNHFSLRLTSVTAADTAVYYCARVRWSGSTSWDLDYWGQGTLVTVSS
VL: B14 VL with L4V, K67T, D86V, L96P, R100G, L108V
notes: full-length IgG; also called Antibody Number 41
In the case of B16, the Kd was 2.41 nM.

B17: ADI-48955 (antibody, V domains shown)
VH: QVQLVQSGGGLVNPGGSLRLSCAASGFTFTDYYMSWIRQAPGKGLEWVSYISSSGNTRYYADSVKGRFTISRDNAKNSLSLQMNSLRPEDTAIYYCARDGSLVNAIDYWGQGTLVTVSS
VL: B14 VL with I29F, N32D, N53D, G99A, R100W, L108V
notes: full-length IgG; also called Antibody Number 40
Take B17: the Kd was 2.05 nM.

B18: ADI-46586 (antibody, V domains shown)
VH: B17 VH with Q1E, Q6E, N13K, S52T, R58K, S80F, P88A, I93V, Y95F, L102M
VL: B14 VL with S2P, N32D, A85G, T94S, G99A, R100W, L108V
notes: full-length IgG; also called Antibody Number 43
Turning to B18, the Kd was found to be 2.16 nM.

B19: ADI-42151 (antibody, V domains shown)
VH: B14 VH with V5Q, D27G, T32S, Y48W, F53Y, N59T, F63S, H78Q, S103T
VL: B14 VL with L4V
notes: full-length IgG; also called Antibody Number 51
As for B19, the Kd was found to be 297 nM.

B20: ADI-50026 (antibody, V domains shown)
VH: EVQLLESGGGVVQPGRSLRLSCAASGFTFTTYAMHWVRQAPGKGLEWVAAVSYDGNNKYYADSVKGRFTISRDNSRNTLYLQMNSLRAEDTAVYFCARNTYYDRSGLIAYWGQGALVTVSS
VL: DIQVTQSPSSLSASVGDRVTITCQASQDISNYLNWYQHKPGRAPKLLIYDASNLERGVPSRFSGSGSGTDFTFTISSLQPEDIATYYCQQYDNLSRLTFGGGTKLEIK
notes: full-length IgG; also called Antibody Number 33
Turning to B20, the Kd was more than 100 nM.

B21: ADI-50205 (antibody, V domains shown)
VH: QVQLQESGGGVVQPGRSLRLSCAASGFTFSNFGMHWVRQAPGKGLEWVAIISYDRSNKDYADSVKGRFTISRDNSKNTLYLQMNSLRAEDTAVYYCAKDQCGGDCTADYWGQGTLVTVSS
VL: QSVLIQPASVSGSPGQSITISCTGTSSDVGGDKYVSWYQQHPGKAPKLVIYEVSNRPSGVSNRFSGSKSGNTASLTISGLQAEDEADYYCSSYTSSGTPVVCGGGTKVTVL
notes: full-length IgG; also called Antibody Number 36
Regarding B21, the Kd came to 18.8 nM.

B22: ADI-42230 (antibody, V domains shown)
VH: QVQLVESGGGVVQPGRSLRLSCAASGFTFSSYAMHWVRQAPGKGLEWVAVISHDGSNKYYADSVKGRFTISRDNSKNTLYLQINSLRAEDTAVYYCPRDGLPGANQYFFYYGMDVWGQGTTVTVSS
VL: DIQVTQSPSSLSASVGDRVTITCRASQGISNYLAWYQQKPGKVPKLLIFAASTLRSGVPSRFRGSGSGTDFTLTISSLQPEDVATYYCQKYNSAPLTFGGGTKVEIK
notes: full-length IgG; also called Antibody Number 47
Regarding B22, the Kd turned out to be 1.99 nM.

The record behind these values is patent US20240218054A1 (MABLOC, published 2024).
